# From article PMC4223631 (Developmental cell, 2014)
# Molecular target: rabbit muscle actin (filaments: ADP-F-actin or ADP•BeFx-F-actin) (rabbit, UniProt P68135 1-377)
# Test: co-sedimentation
binder,measurement,value
"cofilin-2 (mouse, recombinant wild type) (natural protein) MASGVTVNDEVIKVFNDMKVRKSSTQEEIKKRKKAVLFCLSDDKRQIIVEEAKQILVGDIGDTVEDPYTSFVKLLPLNDCRYALYDATYETKESKKEDLVFIFWAPESAPLKSKMIYASSKDAIKKKFTGIKHEWQVNGLDDIKDRSTLGEKLGGSVVVSLEGKPL",KD of a small fraction (~20%) of the cofilin,~1000 nM
same,KD of the majority of the cofilin,~5000 nM
